Measurements: the supplement of paper PMC7125110
± gives the standard error. For some assays here: This sample holds only a part of the variants without activity.

B1: glmS ribozyme (parent)
chain: AUAAAAGCGCCAGAACUACAGAAAUGUAGUUGACGAGGAGGAGGUUUAUCGAAUUUUCGGCGGAUGCCUCCAAA

How the values were obtained:
Settings in all cases: with glucosamine-6-phosphate
[1] = variants of: B1; experiment: kcat; higher = faster cleavage; RNA array
Method in brief: (§1)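 The measurements used barcoded ribozyme variants on sequenced MiSeq chips, transcribed in situ by E. coli RNA polymerase and tracked at 37 °C with a hybridised Cy3 probe. Glucosamine-6-phosphate, 40 μM to 10 mM in HEPES/KCl/Mg(OAc)2 buffer, was flowed in while tiles were imaged over ~14 h. Baseline-normalised signals, also normalised to non-cleaving reference variants, gave per-tile medians that were fit to one- or two-exponential decays for kobs. kcat and KM resulted from weighted Michaelis–Menten fits across concentrations.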

[2] = variants of: B1; experiment: self-cleavage kobs at 40 uM GlcN6P; higher = faster cleavage; RNA array
Method in brief: as §1

[3] = variants of: B1; experiment: self-cleavage kobs at 640 uM GlcN6P; higher = faster cleavage; RNA array
Method in brief: as §1

[4] = variants of: B1; experiment: self-cleavage kobs at 2500 uM GlcN6P; higher = faster cleavage; RNA array
Method in brief: as §1

[5] = variants of: B1; experiment: self-cleavage kobs at 10000 uM GlcN6P; higher = faster cleavage; RNA array
Method in brief: as §1

[6] = variants of: B1; experiment: KM; higher = weaker cofactor use; RNA array
Method in brief: as §1

[7] = variants of: B1; experiment: self-cleavage kobs at 160 uM GlcN6P; higher = faster cleavage; RNA array
Method in brief: as §1

Variant	kcat [1] [s⁻¹]	self-cleavage kobs at 40 uM GlcN6P [2] [s⁻¹]	self-cleavage kobs at 640 uM GlcN6P [3] [s⁻¹]	self-cleavage kobs at 2500 uM GlcN6P [4] [s⁻¹]	self-cleavage kobs at 10000 uM GlcN6P [5] [s⁻¹]	KM [6] [µM]	self-cleavage kobs at 160 uM GlcN6P [7] [s⁻¹]
G66A C67A C71U	0.00289 ± 0.0012	6.11e-05 ± 1.7e-05	0.000304 ± 6.2e-05	0.00101 ± 0.00048	0.002 ± 0.00029		
G32A G59U	1.15e-05 ± 1.2e-06					3350 ± 1300	
G13A C70G	3.04e-05 ± 1.3e-05		5.03e-05 ± 1.9e-05	5.41e-05 ± 1.5e-05			
C10G A12G A53C G59C	1.95e-05 ± 6.6e-06						
A15U A42G	0.00684 ± 0.0019	0.000222 ± 3.2e-05	0.00165 ± 0.00033	0.0039 ± 0.0016	0.00687 ± 0.0013	1500 ± 570	0.000542 ± 0.00018
A6U G38C	< 1e-05	< 1e-05	< 1e-05			3580 ± 1000	< 1e-05
G37C A64C	1.32e-05 ± 3.3e-06				< 1e-05		
A12G A48G	2.09e-05 ± 3.3e-06	< 1e-05					
A36C U49G	0.00221 ± 0.00064	6.21e-05 ± 2.5e-05	0.000416 ± 0.00011	0.000851 ± 0.00021	0.00186 ± 0.00031		
G38U C70A	1.31e-05 ± 3.3e-06						
G35C C70G	< 1e-05			< 1e-05			
G37A C67U	0.000574 ± 0.0001		0.000109 ± 1.5e-05	0.00036 ± 4.6e-05	0.000449 ± 4.9e-05	2310 ± 720	4.58e-05 ± 1.1e-05
A52C G66C	1.28e-05 ± 2.9e-06	< 1e-05	< 1e-05				
G51A	1.01e-05 ± 2.8e-07					965 ± 160	
U45C U56A	0.000778 ± 0.00024		0.000288 ± 3.9e-05	0.000377 ± 6.1e-05	0.000928 ± 0.00015		7.1e-05 ± 1.5e-05
A42C	1.83e-05 ± 2.5e-07				1.21e-05 ± 1.4e-06	5140 ± 190	
A42G	0.0432 ± 0.015	0.00143 ± 3.4e-05	0.0128 ± 0.00054	0.0238 ± 0.0016	0.0639 ± 0.0036	1270 ± 530	0.00406 ± 0.00021
A39C U65C	0.000473 ± 8.7e-05		0.000107 ± 2e-05	0.000311 ± 7.1e-05	0.000367 ± 6.1e-05	2250 ± 770	
C50A G60C	1.48e-05 ± 7e-06						
U57A C71G	5.3e-05 ± 1.6e-05						
